Test [1] deals with T1, Biotinylated Human ACE2, His, Avitag protein (ACROBiosystems, AC2-H82E6) (human, UniProt Q9BYF1 18-740).
T1 construct: also called biotinylated ACE2; ACE2 protein; not shown: His tag and Avitag
In words: SPR single cycle kinetics, ACE2 captured on CAP chip, peptide analyte; geometric mean. The method, then:
(§1) Binding of bicyclic peptides of the invention to Biotinylated Human ACE2, His, Avitag™ protein (ACROBiosystems, AC2-H82E6) was assessed by a SCK analysis. Experiments were performed at 25° C. on a Biacore T200 (Cytiva) running Biacore T200 Control software V2.0.1 and Evaluation software V3.0 (Cytiva). HBS-EP+ (Cytiva) was used as running buffer as well as for ligand and analyte dilutions. Biotin CAPture reagent was loaded onto a Series S Sensor CAP Chip (Cytiva) followed by loading of the ACE2 protein at a flow rate of 2 μl/min. The surface was then allowed to stabilise.
(§2) SCK data was obtained using bicyclic peptides of the invention as analytes injected at a flow rate of 30 μl/min to minimise any potential mass transfer effects. […] The association phases were monitored for 100 seconds for each of the four injections of increasing concentrations of analyte and a single dissociation phase was measured for 400 seconds following the last injection of analyte. Regeneration of the sensor chip surface was conducted using the CAP Chip standard regeneration buffer (Cytiva).
(§3) The signal from the reference channel Fc1 (no ACE2 captured) was subtracted from that of Fc2, Fc3 and Fc4 to correct for bulk effect and differences in non-specific binding to a reference surface. The signal from each blank run (Fc2-ACE2 captured but no antigen) was subtracted to correct for differences in surface stability. The double referenced sensorgrams were fitted with the Langmuir (1:1) binding model (Equation 1a below) where the closeness of fit of the data to the model is evaluated using the Chi square value which describes the deviation between the experimental and fitted (observed and expected) curves (Equation 1b below).

Test [2] has as its target T1, Biotinylated Human ACE2, His, Avitag …. The test can be described thus: SPR multiple cycle kinetics, ACE2 captured on CAP chip, peptide analyte 6.25-100 nM; geometric mean. As to the method: Binding of bicyclic peptides of the invention to Biotinylated Human ACE2, His, Avitag™ protein (ACROBiosystems, AC2-H82E6) was assessed by a MCK analysis. Experiments were performed at 25° C. on a Biacore T200 (Cytiva) running Biacore T200 Control software V2.0.1 and Evaluation software V3.0 (Cytiva). HBS-EP+(Cytiva) was used as running buffer as well as for ligand and analyte dilutions. Biotin CAPture reagent was loaded onto a Series S Sensor CAP Chip (Cytiva) followed by loading of biotinylated ACE2 at a flow rate of 2 μl/min. The surface was then allowed to stabilise.
MCK data was obtained using bicyclic peptides of the invention as analytes injected at a flow rate of 30 μl/min to minimise any potential mass transfer effects. A five point, two-fold dilution range from 6.25 nM to 100 nM of analyte was prepared in running buffer. For each concentration, the association phases were monitored for 250 seconds and the dissociation phase was measured for 450 seconds. Regeneration of the sensor chip surface was conducted between cycles using the CAP Chip standard regeneration buffer (Cytiva). Multiple repeats of a blank and of Bicycle were programmed into the kinetic run in order to check the stability of both the surface and analyte over the kinetic cycles.
as §3, with “above)” for “below)”, “1 b above).” for “1b below).”

For test [3] the target is unchanged. In words: SPR single cycle kinetics, ACE2 captured on CAP chip, peptide analyte; geometric mean; * Rmax set to 10. As to the method: as §1, §2, §3

Numbered stars: 1 amine (or outer) side, 2 acyl side, 3 side chain; on linkers, the order of the positions; unused ones are H or OH. Bridge positions count the residues as written; N and C are the ends. Square brackets hold non-standard residues; d marks the D form. Ends that are not written are not given here. Hse(Me) = O-methyl-homoserine, COCC[C@H](N[*:1])C(=O)[*:2]; TATA = O=C(CC[*:1])N1CN(C(=O)CC[*:2])CN(C(=O)CC[*:3])C1; Phe(3-Cl) = N[C@@H](Cc1cccc(Cl)c1)C(=O)O; Phe(2-Cl) = N[C@@H](Cc1ccccc1Cl)C(=O)O; Phe(3-F) = N[C@@H](Cc1cccc(F)c1)C(=O)O; Phe(3-Me) = Cc1cccc(C[C@H](N)C(=O)O)c1; Phe(4-Me) = Cc1ccc(C[C@H](N)C(=O)O)cc1; Phe(2-F) = N[C@@H](Cc1ccccc1F)C(=O)O; Phe(2-Me) = Cc1ccccc1C[C@H](N)C(=O)O; Hyp = O=C(O)[C@@H]1C[C@@H](O)CN1; hArg = N=C(N)NCCCC[C@H](N)C(=O)O; tBuAla = CC(C)(C)C[C@H](N)C(=O)O; Agb = N=C(N)NCC[C@H](N)C(=O)O; PYA = propargyl-acid

From patent US20230183291A1 (Bicycle, published 2023) come the findings set out here.

T1 sequence (Q9BYF1 18-740 limits assumed): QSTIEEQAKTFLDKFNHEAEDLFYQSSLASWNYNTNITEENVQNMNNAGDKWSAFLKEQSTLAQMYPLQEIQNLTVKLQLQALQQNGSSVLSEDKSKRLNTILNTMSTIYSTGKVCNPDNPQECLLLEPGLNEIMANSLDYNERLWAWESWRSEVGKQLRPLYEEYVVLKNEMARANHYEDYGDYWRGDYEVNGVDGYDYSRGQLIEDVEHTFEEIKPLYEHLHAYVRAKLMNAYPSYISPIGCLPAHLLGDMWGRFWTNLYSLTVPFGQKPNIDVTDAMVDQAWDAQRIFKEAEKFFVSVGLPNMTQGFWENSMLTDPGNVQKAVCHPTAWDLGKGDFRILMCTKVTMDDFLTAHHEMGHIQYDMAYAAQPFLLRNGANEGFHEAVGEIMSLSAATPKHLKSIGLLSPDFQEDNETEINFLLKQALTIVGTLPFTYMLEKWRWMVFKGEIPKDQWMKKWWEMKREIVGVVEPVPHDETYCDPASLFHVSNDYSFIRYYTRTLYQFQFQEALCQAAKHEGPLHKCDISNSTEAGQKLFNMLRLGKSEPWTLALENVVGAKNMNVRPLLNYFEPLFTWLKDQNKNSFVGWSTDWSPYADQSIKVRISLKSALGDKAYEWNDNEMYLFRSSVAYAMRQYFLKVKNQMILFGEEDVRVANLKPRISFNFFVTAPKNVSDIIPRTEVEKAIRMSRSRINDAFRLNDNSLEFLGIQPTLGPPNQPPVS

In turn, Ac-CNAVLCSWA[hArg]ANSFCK(PYA) (linker 1-6-15 via TATA, bicyclic peptide, TATA scaffold) [BCY18784] displayed a Kd in test [1] of 25.3 nM.

Regarding ACNQVLCRWAQVNSMCA (linker 2-7-16 via TATA, bicyclic peptide, TATA scaffold) [BCY17158], the dissociation constant (Kd) worked out at 4 nM in test [1] and 8.1 nM in test [2].

In test [1], Ac-ACNAVLCSWARANSFCA (linker 2-7-16 via TATA, bicyclic peptide, TATA scaffold) [BCY17691] came in with a dissociation constant (Kd) of 3.9 nM.

With ACNTVLCGWARANSLCA (linker 2-7-16 via TATA, bicyclic peptide, TATA scaffold) [BCY17162], the Kd amounted to 5.7 nM in test [1] and 11.4 nM in test [2].

In the case of ACNAVLCSWA[Agb]ANSFCA (linker 2-7-16 via TATA, bicyclic peptide, TATA scaffold) [BCY17689], the affinity in test [1], expressed as Kd, was 4.7 nM.

In test [1], ACNTLYKCWRGKCA (linker 2-8-13 via TATA, bicyclic peptide, TATA scaffold) [BCY17155] registered an equilibrium dissociation constant (Kd) of 107 nM.

As to ACAEIYKCWRGRCA (linker 2-8-13 via TATA, bicyclic peptide, TATA scaffold) [BCY17152], binding in test [1] was characterised by a dissociation constant (Kd) of 120 nM.

With ACTELYKCWRGRCA (linker 2-8-13 via TATA, bicyclic peptide, TATA scaffold) [BCY17156], in test [1], the Kd came out at 151 nM.

B1: BCY17688 (peptide)
peptide: CNAVLCSWARANSFC
modifications: linker 1-6-15 via TATA
notes: bicyclic peptide without terminal additions
Consider B1, for which, in test [1], the Kd stood at 2.7 nM.

As for ACNTVLCNWARYNSLCA (linker 2-7-16 via TATA, bicyclic peptide, TATA scaffold) [BCY17160], the Kd in test [1] was 4.2 nM; in test [2], 4.8 nM.

ACNAVLCSWARANS[Phe(3-F)]CA (linker 2-7-16 via TATA, bicyclic peptide, TATA scaffold) [BCY17342] returned an equilibrium dissociation constant (Kd) in test [1] of 3.3 nM.

Turning to ACNAVLCSWARANSFCA (linker 2-7-16 via TATA, bicyclic peptide, TATA scaffold) [BCY15429], the Kd amounted to 3.4 nM in test [1] and 4 nM in test [2].

The molecule ACNAVLCSWARANSYCA (linker 2-7-16 via TATA, bicyclic peptide, TATA scaffold) [BCY17690] returned a Kd in test [1] of 4.8 nM.

ACNAVLCSWARANS[Phe(2-F)]CA (linker 2-7-16 via TATA, bicyclic peptide, TATA scaffold) [BCY17341] registered a Kd in test [1] of 3.1 nM.

As for ACSPVLCAWATRNSLCA (linker 2-7-16 via TATA, bicyclic peptide, TATA scaffold) [BCY17165], in test [1], the Kd was 12.5 nM.

Consider ACNTVLCAWAMNNSMCA (linker 2-7-16 via TATA, bicyclic peptide, TATA scaffold) [BCY17163], for which the Kd in test [1] turned out to be 36.8 nM.

Ac-CNTVLCSWA[hArg]ANSFC (linker 1-6-15 via TATA, bicyclic peptide, TATA scaffold) [BCY18657] returned an equilibrium dissociation constant (Kd) in test [1] of 69.3 nM.

For the molecule Ac-CNSVLCSWA[hArg]ANSFC (linker 1-6-15 via TATA, bicyclic peptide, TATA scaffold) [BCY18658], the values for the dissociation constant Kd in test [1] and in test [2] were 6.7 nM and 13.5 nM, respectively.

Ac-CNAVLCSWA[hArg]TNSFC (linker 1-6-15 via TATA, bicyclic peptide, TATA scaffold) [BCY19025] had an equilibrium dissociation constant (Kd) in test [2] of 70.7 nM.

Ac-CNAVLCSWA[hArg]SNSFC (linker 1-6-15 via TATA, bicyclic peptide, TATA scaffold) [BCY19026] had a Kd in test [2] of 45.2 nM.

In test [3], Ac-CNRVLCAWATANS[Hse(Me)]CK(PYA) (linker 1-6-15 via TATA, bicyclic peptide, TATA scaffold) [BCY18349] came in with a Kd of 59.6 nM.

Turning to ACPSQYKCWRGKCA (linker 2-8-13 via TATA, bicyclic peptide, TATA scaffold) [BCY15427], the Kd in test [1] is 150 nM.

In test [1], ACNKVLCSWASRNSMCA (linker 2-7-16 via TATA, bicyclic peptide, TATA scaffold) [BCY17157] gave a Kd of 11.8 nM.

With ACNAVLCSWARANS[Phe(3-Cl)]CA (linker 2-7-16 via TATA, bicyclic peptide, TATA scaffold) [BCY17339], the equilibrium dissociation constant (Kd) in test [1] was 4.7 nM.

Consider ACNAV[tBuAla]CSWARANSFCA (linker 2-7-16 via TATA, bicyclic peptide, TATA scaffold) [BCY17333], for which the Kd in test [1] was found to be 5 nM.

In test [1], ACDTLYKCWRGRCA (linker 2-8-13 via TATA, bicyclic peptide, TATA scaffold) [BCY17153] came in with a Kd of 91.7 nM.

Regarding Ac-CN[Hyp]VLCSWA[hArg]ANSFC (linker 1-6-15 via TATA, bicyclic peptide, TATA scaffold) [BCY18210], the figures for the Kd in test [2] and in test [3] were 10.6 nM and 21.1 nM, respectively.

For the molecule ACNAVLCSWARANS[Phe(2-Me)]CA (linker 2-7-16 via TATA, bicyclic peptide, TATA scaffold) [BCY17335], binding in test [1] was put at a Kd of 2.5 nM.

Take ACNTVLCAWARANSYCA (linker 2-7-16 via TATA, bicyclic peptide, TATA scaffold) [BCY17161]: the Kd in test [1] is 4.2 nM; in test [2], 4.4 nM.

Ac-CNAVLCSWARANSFC (linker 1-6-15 via TATA, bicyclic peptide, TATA scaffold) [BCY17663] came in with an equilibrium dissociation constant (Kd) in test [1] of 5.3 nM.

As for ACNAVLCSWARANS[Phe(4-Me)]CA (linker 2-7-16 via TATA, bicyclic peptide, TATA scaffold) [BCY17337], binding in test [1] was characterised by a dissociation constant (Kd) of 5 nM.

The molecule ACNRVLCAWATANSMCA (linker 2-7-16 via TATA, bicyclic peptide, TATA scaffold) [BCY17159] yielded a dissociation constant (Kd) in test [1] of 4.7 nM.

In test [1], Ac-CN[hArg]VLCSWA[hArg]ANSFC (linker 1-6-15 via TATA, bicyclic peptide, TATA scaffold) [BCY18350] returned an equilibrium dissociation constant (Kd) of 8.3 nM.

For the molecule ACNAVLCSWARANS[Phe(2-Cl)]CA (linker 2-7-16 via TATA, bicyclic peptide, TATA scaffold) [BCY17338], the Kd in test [1] was 3.2 nM.

Consider ACNAVLCSWARANS[Phe(3-Me)]CA (linker 2-7-16 via TATA, bicyclic peptide, TATA scaffold) [BCY17336], for which the Kd in test [1] worked out at 8.3 nM.

In the case of ACESLYKCWRGRCA (linker 2-8-13 via TATA, bicyclic peptide, TATA scaffold) [BCY17154], in test [1], binding was put at a Kd of 104 nM.

In test [1], ACNTVLCAWATQNSLCA (linker 2-7-16 via TATA, bicyclic peptide, TATA scaffold) [BCY17164] gave a dissociation constant Kd of 14.8 nM.
